{
  "source": "paper PMC4902875",
  "about": "(ACS chemical biology, 2016)",
  "biological_target": "the molecule itself",
  "assay": "crystal structure",
  "data": [
    {"protein": "BexE (enzyme, Amycolotopsis orientalis sp. vinerea, UniProt D7RFJ3 1-487, looked up) MDAPVVIAGAGPAGLMLAGELRLAGIGVVVLERLPARTGESRGLGFTARTMEVFDQRGLLRRFGEVQTSDQGHFGGIPVDFGLLDGAHQAAKTIPQSATEAVLEAWAGELGADIRRGHELTGVRDDGDGVAVTVRGPAGEHVLRAGWLVGCDGGRSAVRKAVGFDFPGTAATREMFLADLRGVELEPRMIGESLPGGMVMVGPLPGGVTRIIVCERDAPPRRRTGPPPFHEVADAWKRITGIDISAAEPVWLSAFGDATRQVTEYRRGRVLLAGDAAHVHLPAGGQGMNAGIQDAVNLGWKLAAVVRGTARADLLDTYHGERHPVGVRLLMNTRAQGLLFLNGAEMQPLRDVLAELTGYPDVARHLAAMVSGLEIAYDVGGGSHPWLGRRLPRLELDRGGRPSSTAELLRPARGLLLDFAGNAALRDRAAPWAGRIDVVTARPAAGRVPGATTAVLVRPDGHVAWAAPGTHADLPMALERWFGPAPR", "values": [
      {"measurement": "binding result", "result": "binds"}
    ]}
  ]
}
